# Data: US20170051072A1 (UNITED STATES OF AMERICA AS REPRESENTED BY THE SECRETARY …, published 2017)
# “And” between values parts separate entries of the source, which are not always exact repeats. Identical values can stand only once.
# B1: IgG VH 000/15437 + VL 001/15457 (antibody, V domains shown)
# VH: not shown
# VL: DIQMTQSPSSLSASVGDRVTITCSASSSVSYMHWYQQKSGKAPKLLIYDTSKLASGVPSRFSGSGSGTDFTLTISSLQPEDFATYYCQQWSKHPLTFGQGTKLEIK
# B2: IgG VH 001/15438 + VL 000/15456 (antibody, V domains shown)
# VH: QVQLVQSGAEVKKPGASVKVSCKASGYSFTGYTMNWVRQAPGQGLEWMGLITPYNGASSYNQKFRGKATMTVDTSTSTVYMELSSLRSEDTAVYYCARGGYDGRGFDYWGQGTLVTVSS
# VL: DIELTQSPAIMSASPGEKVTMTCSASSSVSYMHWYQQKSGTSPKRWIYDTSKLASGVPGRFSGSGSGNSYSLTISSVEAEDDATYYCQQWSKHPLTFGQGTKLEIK
# B3: IgG VH 001/15438 + VL 001/15457 (antibody, V domains shown)
# VH: B2 VH
# VL: B1 VL
# notes: also called VL001/VH001; VL01/VH01
# Key:
# [1] = target: T1, human mesothelin with His-tag (R&D Systems) (human, UniProt Q13421 296-580); assay: ELISA, IgG on captured His-huMesothelin (R&D)
# T1 construct: also called huMesothelin; MSLN; not shown: His-tag
# T1 sequence (Q13421 other isoform, or with tags, fused parts or gaps limits assumed): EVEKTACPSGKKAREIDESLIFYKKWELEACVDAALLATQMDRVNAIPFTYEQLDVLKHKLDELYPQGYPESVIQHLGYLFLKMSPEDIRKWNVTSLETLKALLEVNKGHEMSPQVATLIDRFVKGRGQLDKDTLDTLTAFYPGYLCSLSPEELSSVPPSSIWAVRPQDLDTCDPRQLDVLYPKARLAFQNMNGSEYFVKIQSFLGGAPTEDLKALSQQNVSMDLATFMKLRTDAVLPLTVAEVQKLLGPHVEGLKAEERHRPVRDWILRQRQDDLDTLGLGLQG
# [2] = target: T2, human mesothelin with His-tag (in house) (human, UniProt Q13421 296-598, limits assumed); assay: ELISA, IgG on captured His-huMesothelin (in house)
# T2 construct: also called huMesothelin; MSLN; not shown: His-tag
# T2 sequence (Q13421 other isoform, or with tags, fused parts or gaps limits assumed): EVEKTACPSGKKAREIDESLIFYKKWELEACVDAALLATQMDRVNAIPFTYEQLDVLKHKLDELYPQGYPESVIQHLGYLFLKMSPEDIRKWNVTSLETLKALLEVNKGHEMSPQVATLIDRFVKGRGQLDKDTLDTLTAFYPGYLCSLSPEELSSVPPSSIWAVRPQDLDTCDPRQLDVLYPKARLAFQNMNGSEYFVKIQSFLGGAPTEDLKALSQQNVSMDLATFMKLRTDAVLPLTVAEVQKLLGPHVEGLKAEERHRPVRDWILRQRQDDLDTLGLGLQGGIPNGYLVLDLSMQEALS
# human mesothelin (SPR) = target: T3, human mesothelin (SPR) (human, UniProt Q13421 296-598, limits assumed); assay: SPR, IgG captured on Protein A, 50 nM human mesothelin, 25 C, 1:1 fit
# T3 construct: also called human MSLN
Binder,EC50 [1] [µg/mL],EC50 [2] [µg/mL],Kd (human mesothelin (SPR))
B1,0.0182,0.0178,–
B2,0.0228,0.032,–
B3,0.0155,0.0203,0.263 nM and 0.26 nM
